Experimental data as given in US20250367128A1, “BIODEGRADABLE LIPIDOIDS AND COMPOSITIONS AND METHODS OF USE THEREOF FOR LIVER TARGETED DELIVERY” (The Trustees of the University of Pennsylvania, priority 2022, published 2025).
Strand notation (5' to 3'): a small letter for the sugar, then the base; units joined by * are phosphorothioate-linked, units joined directly phosphodiester-linked; [ ] holds rarer units or linkages, { } end groups; capitals alone tell only the bases. [PACE] = phosphonoacetate internucleotide linkage; m = 2'-O-methyl; r = 2'-OH (RNA)

Tested on: hPCSK9 exon 7
Assay: In vitro validation of SpCas9 gRNA (plasmid transfection of cell line)
Type: cell-based, human
Settings: data not shown
Excerpt: In this study, we perform pre-clinical gene editing studies using a PCSK9-hE7 mouse line having a humanized Pcsk9 gene. […] This allows for studies to use renucleic acids which can be directly translated to NHP or human. PCSK9 gene is a “safe harbor” for insertion of a gene therapy mini-gene. Previously, the SpCas9 gRNAs targeting hPCSK9 exon 7 was validated in vitro (plasmid transfection of cell line) with sgR1 yielded 32% indel formation (data not shown).

B1: sgR1: SpCas9 gRNA targeting hPCSK9 exon 7, SEQ ID NO: 1 (nucleic acid)
guide: mG*mA*mC*rCrArArCrUrUrUrGrGrCrCrGrCrUrGrUrGrGrUrUrUrUrArGrAmGmCmUmAmGmAmAmAmUmAmGmCrArArGrUrUrArArArArUrArArGrGrCrUrArGrUrCrCrGrUrUrArUrCrAmAmCmUmUmGmAmAmAmAmAmGmUmGmGmCmAmCmCmGmAmGmUmCmGmGmUmGmCmU[PACE]mU[PACE]mU[PACE]mU
- indel formation: 32%
